The values that follow come from patent CN111138536A (REYOUNG (SUZHOU) BIOPHARMACEUTICAL CO LTD, dated 2020).

Usually Kd stands for the free concentration of one partner at which half of the binding sites on the other are occupied at equilibrium, for simple one-to-one binding. A low value points to a tighter complex.

For this assay, the target named is T1, 人血清白蛋白 (human, UniProt P02768 25-609).
T1 construct: also called HSA; human serum albumin
As to the kind of experiment: SPR (Biacore T200); HSA amine-coupled to CM5 chip, NB4 as analyte.

B1: 单域抗体NB4 (VHH)
VHH: QVQLQESGGGSVQAGGSLRLACAASGYTYSSACMAWFRQAPGKEREKVATIYTGGTYPYYADSVKGRFTMSHDNAKNTVYLQMNSLKPEDTGMYYCAADASWGCRLSGSWGAKYNNWGQGTQVTVSS
notes: Camel-derived VHH, expressed in E. coli BL-21 from pET-22 with a C-terminal 6x His tag and purified on a nickel column; also called 抗人血清白蛋白单域抗体
Consider B1, for which the affinity, expressed as Kd, was 0.245 nM.
